Results taken from US9833497B2, “Human originated EGF domain proteins and use of the same” (CHENGDU SOURCEBIO LIMITED-LIABILITY COMPANY, priority 2013, dated 2017).

Assays:
Format in all cases: cell-based
Pseudomonas aeruginosa = experiment: MIC against Gram-negative bacteria: Pseudomonas aeruginosa; settings: 5×10^5 CFU/mL; for MIC (μg/mL) P. aeruginosa: 10 h cultivation at 37° C.
Method: (§1) 1. Gram-negative bacteria, such as E. coli BL21, Pseudomonas aeruginosa, Klebsiella pneumonia, Enterobacter cloacae, Aeromonas hydrophila, Citrobacter diversus, Moraxella catarrhalis, Proteus mirabilis, Proteus vulgaris, Serratia marcescens, etc were streaked on solid LB medium and cultured respectively. Then, typical clones were picked, inoculated into common liquid LB medium respectively, and cultured at 37° C. with shaking at 185 rpm until the McFarland specific turbidity was 0.5. The bacterial culture of each of Gram-negative bacteria was centrifuged at 4000×g for 3 min, the supernatant was discarded, and the thalli were resuspended with fresh LB medium.
(§2) 2. The above-mentioned bacterial suspensions were diluted and inoculated into 96-well plates with the final concentration of the bacterial suspension being 5×10^5 CFU/mL per well.
(§3) 3. Each of the purified human-originated EGF domain proteins (PRT1 to PRT1498 in Table 1) was added to each of the above wells and subjected to two-fold serial dilution in concentration. Three parallel wells were set up for each concentration in the gradient.
(§4) 4. The above-mentioned 96-well plates were placed and cultured at 37° C. in shaking incubator shaking at 175 rpm. […] The minimal inhibitory concentration MIC is defined as the lowest concentration of the recombinant protein at which there is no growth of the bacteria.

Proteus vulgaris = experiment: MIC against Gram-negative bacteria: Proteus vulgaris; settings: 5×10^5 CFU/mL; for MIC (μg/mL) P. vulgaris: 10 h cultivation at 37° C.
Method: as §1, §2, §3, §4

Serratia marcescens = experiment: MIC against Gram-negative bacteria: Serratia marcescens; settings: 5×10^5 CFU/mL; for MIC (μg/mL) S. marcescens: 10 h cultivation at 37° C.
Method: as §1, §2, §3, §4

Citrobacter diversus = experiment: MIC against Gram-negative bacteria: Citrobacter diversus; settings: 5×10^5 CFU/mL; for MIC (μg/mL) C. diversus: 10 h cultivation at 37° C.
Method: as §1, §2, §3, §4

E. coli BL21 = experiment: MIC against Gram-negative bacteria: E. coli BL21; settings: 5×10^5 CFU/mL; for MIC (μg/mL) E. coli BL21: 10 h cultivation at 37° C.
Method: as §1, §2, §3, §4

Proteus mirabilis = experiment: MIC against Gram-negative bacteria: Proteus mirabilis; settings: 5×10^5 CFU/mL; for MIC (μg/mL) P. mirabilis: 10 h cultivation at 37° C.
Method: as §1, §2, §3, §4

Moraxella catarrhalis = experiment: MIC against Gram-negative bacteria: Moraxella catarrhalis; settings: 5×10^5 CFU/mL; for MIC (μg/mL) M. catarrhalis: 10 h cultivation at 37° C.
Method: as §1, §2, §3, §4

Klebsiella pneumonia = experiment: MIC against Gram-negative bacteria: Klebsiella pneumonia; settings: 5×10^5 CFU/mL; for MIC (μg/mL) K. pneumonia: 10 h cultivation at 37° C.
Method: as §1, §2, §3, §4

E. coli DH5α = experiment: Antibacterial activity: MIC and growth curve against E. coli DH5α in 96-well plate; settings: minimal inhibitory concentration against E. coli DH5α; 96-well plate, 5×10^5 CFU/mL, 37° C., judged after 8 h
Method: 1. E. coli DH5α was exemplified. E. coli DH5α was streaked and cultured on LB solid medium. Then, a typical clone was picked and inoculated into common LB liquid medium, cultured at 37° C. with shaking at 185 rpm until the logarithmic growth phase was reached (OD600 of about 0.5). The bacterial culture was centrifuged at 4000×g for 3 min, the supernatant was discarded, and the thalli were resuspended with fresh LB medium.
2. The above-mentioned bacterial suspension was diluted and inoculated into a 96-well plate with the total volume of 100 μL per well and a bacterial count of 5×10^5 CFU/mL.
3. The recombinant protein hF VII-EGF1 was added to the above-mentioned wells with the final protein concentration in the well of the highest protein concentration being 50 μg/mL. Basing on this final concentration, a two-fold serial dilution was performed till a protein concentration gradient consisting of 50, 25, and 12.5 μg/mL was set up. Three parallel wells were set up for each concentration in the gradient.
as §4, with “plate was” for “plates were”, “rpm. Samples were taken every 30 min, the absorbance values were determined at 600 nm wavelength under a ultra violet spectrophotometer, and an inhibition curve was plotted.” for “rpm.”
According to the experimental procedures in Example 14, the minimal inhibitory concentrations (MIC, μg/mL) of the other human-originated EGF domain proteins (PRT2 to PRT1498 in Table 1) for E. coli DH5α were determined.

Aeromonas hydrophila = experiment: MIC against Gram-negative bacteria: Aeromonas hydrophila; settings: 5×10^5 CFU/mL; for MIC (μg/mL) A. hydrophila: 10 h cultivation at 37° C.
Method: as §1, §2, §3, §4

Enterobacter cloacae = experiment: MIC against Gram-negative bacteria: Enterobacter cloacae; settings: 5×10^5 CFU/mL; for MIC (μg/mL) E. cloacae: 10 h cultivation at 37° C.
Method: as §1, §2, §3, §4

| Molecule | MIC (μg/mL) P. aeruginosa (Pseudomonas aeruginosa) [µg/mL] | MIC (μg/mL) P. vulgaris (Proteus vulgaris) [µg/mL] | MIC (μg/mL) S. marcescens (Serratia marcescens) [µg/mL] | MIC (μg/mL) C. diversus (Citrobacter diversus) [µg/mL] | MIC (μg/mL) E. coli BL21 (E. coli BL21) [µg/mL] | MIC (μg/mL) P. mirabilis (Proteus mirabilis) [µg/mL] | MIC (μg/mL) M. catarrhalis (Moraxella catarrhalis) [µg/mL] | MIC (μg/mL) K. pneumonia (Klebsiella pneumonia) [µg/mL] | MIC (E. coli DH5α) [µg/mL] | MIC (μg/mL) A. hydrophila (Aeromonas hydrophila) [µg/mL] | MIC (μg/mL) E. cloacae (Enterobacter cloacae) [µg/mL] | further results |
| --- | --- | --- | --- | --- | --- | --- | --- | --- | --- | --- | --- | --- |
| PRT863 (protein, listed as Homo sapiens) CFCNGHADQCIPVHGFRPVKAPGTFHMVHGKCMCKHNTAGSHCQHCAPLYNDRPWEAADGKTGAPNECRT | 25 | 25 | 12.5 | 12.5 | 12.5 | 12.5 | 12.5 | 50 | 50 | 12.5 | 12.5 |  |
| PRT845 (protein, listed as Homo sapiens) CQCNGHADTCNEQDGTGCPCQNNTETGTCQGSSPSDRRDCYKYQCAKCRESFHGSPLGGQQCYR | 25 | 12.5 | 50 | 12.5 | 12.5 | 12.5 | 25 | 25 | 25 | 25 | 12.5 |  |
| PRT598 (protein, listed as Homo sapiens) CSCNSHSSRCHFDMTTYLASGGLSGGVCEDCQHNTEGQHCDRCRPLFYRDPLKTISDPYACIP |  |  |  |  |  |  |  |  | 25 |  |  | MIC P. aeruginosa (Pseudomonas aeruginosa; 96-well plate, 37° C., 10 h): 12.5 µg/mL; MIC P. vulgaris (Proteus vulgaris; 96-well plate, 37° C., 10 h): 50 µg/mL; MIC S. marcescens (Serratia marcescens; 96-well plate, 37° C., 10 h): 25 µg/mL; MIC C. diversus (Citrobacter diversus; 96-well plate, 37° C., 10 h): 50 µg/mL; MIC E. coli BL21 (E. coli BL21; 96-well plate, 37° C., 10 h): 50 µg/mL; MIC P. mirabilis (Proteus mirabilis; 96-well plate, 37° C., 10 h): 12.5 µg/mL; MIC M. catarrhalis (Moraxella catarrhalis; 96-well plate, 37° C., 10 h): 25 µg/mL; MIC K. pneumonia (Klebsiella pneumonia; 96-well plate, 37° C., 10 h): 50 µg/mL; MIC A. hydrophila (Aeromonas hydrophila; 96-well plate, 37° C., 10 h): 25 µg/mL; MIC E. cloacae (Enterobacter cloacae; 96-well plate, 37° C., 10 h): 12.5 µg/mL |
| PRT864 (protein, listed as Homo sapiens) CKCNGHADTCHFDVNVWEASGNRSGGVCDDCQHNTEGQYCQRCKPGFYRDLRRPFSAPDACKP | 12.5 | 12.5 | 50 | 12.5 | 12.5 | 50 | 25 | 25 | 12.5 | 25 | 50 |  |
